Paper doi:10.1101/2020.03.22.002394

What was measured:
[1] = target: murine κ-opioid receptor (κOR-GFP and SNAP-κOR, two differently tagged copies co-expressed) (murine) (UniProt P33534); test: PhotoGate single-molecule co-localisation imaging
[2] = target: murine κ-opioid receptor, split GFP pair (SNAP-κOR-GFP10 and κOR-GFP11-mKate co-expressed) (murine) (UniProt P33534); test: split reporter

Row | Substance | co-localization time [1] [ms] | dimeric fraction [1] [%] | fraction of receptors in yellow spots [1] [%] | yellow fraction at a density of 14 / µm^2 [1] [%] | yellow fraction at densities of > 100 / µm^2 [1] [%] | GFP-positive fraction [2] [%]
1 | murine κ-opioid receptor (κOR-GFP and SNAP-κOR, two differently tagged copies co-expressed) (from UniProt P33534 1-380) | 476 | < 100 | 33 | 10 | 46 | 
2 | murine κ-opioid receptor, split GFP pair (SNAP-κOR-GFP10 and κOR-GFP11-mKate co-expressed) (from UniProt P33534 1-380) |  |  |  |  |  | 91
